# Legend:
# [1] = biological target: endogenous actin filaments of XTC cells (Xenopus laevis (endogenous in XTC)) (UniProt O93400); experiment: decay of EGFP fluorescence in permeabilized cells
# [2] = biological target: endogenous actin filaments of XTC cells (Xenopus laevis (endogenous in XTC)) (UniProt O93400); experiment: single-molecule speckle microscopy
decay rate of fluorescence in lamellipodia of permeabilized cells [1] [s⁻¹],half-life of persistent speckles after 1 μM Jas [2] [s],half-life of persistent speckles before Jas [2] [s],half-life of persistent speckles in lamella away from stress fibers [2] [s],half-life of persistent speckles on stress fibers [2] [s],half-life of speckles in lamellipodia [2] [s],Substance
0.00017,68.9,4.26,0.95,2.9,1.2,EGFP-CPβ1 expressed in XTC cells (coupled with endogenous CPα subunits) (complex)
,,,,,1.23,CPβ1-EGFP expressed in XTC cells (coupled with endogenous CPα subunits) (complex)
